Measured values: the supplement of paper PMC9112550, “Optimization of the antimicrobial peptide Bac7 by deep mutational scanning” (BMC Biology, 2022)

Test system: Escherichia coli TOP10
Test: shrunken log2 fold change of peptide-encoding DNA abundance (4.5 h post-induction vs induction); higher = less antimicrobial activity (less host growth inhibition)
Conditions: time post-induction: 4.5 h; library: site-saturation at positions 5, 18, 19, 20
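Note: peptides expressed intracellularly from a pBAD plasmid library in pooled LB shake-flask culture, induced with 0.3% L-arabinose, DNA abundance read by NGS, three biological replicates, DESeq2 with apeglm shrinkage.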

## RRIRTRPPRLPRPRPRPHNAPRP
  shrunken log2 fold change: -0.391

## RRIRTRPPRLPRPRPRPHNPPRP
  shrunken log2 fold change: -0.385

## RRIRTRPPRLPRPRPRPHNRPRP
  shrunken log2 fold change: -0.0489

## RRIRTRPPRLPRPRPRPHNWPRP
  shrunken log2 fold change: 0.0661

## RRIRTRPPRLPRPRPRPHPLPRP
  shrunken log2 fold change: -0.503

## RRIRTRPPRLPRPRPRPHQCPRP
  shrunken log2 fold change: 0.021

## RRIRTRPPRLPRPRPRPHQHPRP
  shrunken log2 fold change: -0.415

## RRIRTRPPRLPRPRPRPHQSPRP
  shrunken log2 fold change: -0.179

## RRIRTRPPRLPRPRPRPHQTPRP
  shrunken log2 fold change: -0.0425

## RRIRTRPPRLPRPRPRPHQYPRP
  shrunken log2 fold change: -0.259

## RRIRTRPPRLPRPRPRPHRPPRP
  shrunken log2 fold change: 0.0943

## RRIRTRPPRLPRPRPRPHSTPRP
  shrunken log2 fold change: -0.374

## RRIRTRPPRLPRPRPRPHTEPRP
  shrunken log2 fold change: -0.215

## RRIRTRPPRLPRPRPRPHTIPRP
  shrunken log2 fold change: -0.314

## RRIRTRPPRLPRPRPRPHTTPRP
  shrunken log2 fold change: -0.166

## RRIRTRPPRLPRPRPRPHWDPRP
  shrunken log2 fold change: -0.245

## RRIRTRPPRLPRPRPRPICDPRP
  shrunken log2 fold change: -0.168

## RRIRTRPPRLPRPRPRPICIPRP
  shrunken log2 fold change: -0.196

## RRIRTRPPRLPRPRPRPIDIPRP
  shrunken log2 fold change: 0.0364

## RRIRTRPPRLPRPRPRPIDYPRP
  shrunken log2 fold change: -0.231

## RRIRTRPPRLPRPRPRPIEPPRP
  shrunken log2 fold change: -0.0864

## RRIRTRPPRLPRPRPRPIERPRP
  shrunken log2 fold change: 0.107

## RRIRTRPPRLPRPRPRPIGRPRP
  shrunken log2 fold change: -0.159

## RRIRTRPPRLPRPRPRPIHSPRP
  shrunken log2 fold change: -0.191

## RRIRTRPPRLPRPRPRPIHVPRP
  shrunken log2 fold change: 0.00961

## RRIRTRPPRLPRPRPRPIKGPRP
  shrunken log2 fold change: -0.331

## RRIRTRPPRLPRPRPRPIKKPRP
  shrunken log2 fold change: -0.0742

## RRIRTRPPRLPRPRPRPIKMPRP
  shrunken log2 fold change: -0.0667

## RRIRTRPPRLPRPRPRPIKTPRP
  shrunken log2 fold change: -0.0452

## RRIRTRPPRLPRPRPRPILEPRP
  shrunken log2 fold change: -0.0122

## RRIRTRPPRLPRPRPRPILLPRP
  shrunken log2 fold change: -0.658

## RRIRTRPPRLPRPRPRPIMVPRP
  shrunken log2 fold change: -0.198

## RRIRTRPPRLPRPRPRPINQPRP
  shrunken log2 fold change: -0.274

## RRIRTRPPRLPRPRPRPIPEPRP
  shrunken log2 fold change: -0.0588

## RRIRTRPPRLPRPRPRPIQCPRP
  shrunken log2 fold change: -0.521

## RRIRTRPPRLPRPRPRPIRNPRP
  shrunken log2 fold change: -0.324

## RRIRTRPPRLPRPRPRPITKPRP
  shrunken log2 fold change: 0.0123

## RRIRTRPPRLPRPRPRPITLPRP
  shrunken log2 fold change: -0.162

## RRIRTRPPRLPRPRPRPIWQPRP
  shrunken log2 fold change: 0.168

## RRIRTRPPRLPRPRPRPIWSPRP
  shrunken log2 fold change: 0.0914

## RRIRTRPPRLPRPRPRPKCMPRP
  shrunken log2 fold change: -0.134

## RRIRTRPPRLPRPRPRPKCWPRP
  shrunken log2 fold change: 1.72

## RRIRTRPPRLPRPRPRPKDHPRP
  shrunken log2 fold change: -0.156

## RRIRTRPPRLPRPRPRPKDRPRP
  shrunken log2 fold change: -0.196

## RRIRTRPPRLPRPRPRPKDYPRP
  shrunken log2 fold change: -0.115

## RRIRTRPPRLPRPRPRPKEMPRP
  shrunken log2 fold change: -0.0567

## RRIRTRPPRLPRPRPRPKFMPRP
  shrunken log2 fold change: -0.0326

## RRIRTRPPRLPRPRPRPKFTPRP
  shrunken log2 fold change: -0.0912

## RRIRTRPPRLPRPRPRPKFWPRP
  shrunken log2 fold change: 0.318

## RRIRTRPPRLPRPRPRPKHTPRP
  shrunken log2 fold change: -0.0343

## RRIRTRPPRLPRPRPRPKIIPRP
  shrunken log2 fold change: -0.211

## RRIRTRPPRLPRPRPRPKIRPRP
  shrunken log2 fold change: 0.0372

## RRIRTRPPRLPRPRPRPKLCPRP
  shrunken log2 fold change: 0.0416

## RRIRTRPPRLPRPRPRPKLVPRP
  shrunken log2 fold change: 0.016

## RRIRTRPPRLPRPRPRPKMAPRP
  shrunken log2 fold change: 0.129

## RRIRTRPPRLPRPRPRPKMHPRP
  shrunken log2 fold change: -0.0762

## RRIRTRPPRLPRPRPRPKNTPRP
  shrunken log2 fold change: -0.508

## RRIRTRPPRLPRPRPRPKNVPRP
  shrunken log2 fold change: 0.0149

## RRIRTRPPRLPRPRPRPKPLPRP
  shrunken log2 fold change: -0.0401

## RRIRTRPPRLPRPRPRPKPSPRP
  shrunken log2 fold change: 0.335

## RRIRTRPPRLPRPRPRPKQPPRP
  shrunken log2 fold change: 0.0517

## RRIRTRPPRLPRPRPRPKWTPRP
  shrunken log2 fold change: 0.0189

## RRIRTRPPRLPRPRPRPKYAPRP
  shrunken log2 fold change: -0.495

## RRIRTRPPRLPRPRPRPKYFPRP
  shrunken log2 fold change: -0.444

## RRIRTRPPRLPRPRPRPLAVPRP
  shrunken log2 fold change: -0.0185

## RRIRTRPPRLPRPRPRPLAWPRP
  shrunken log2 fold change: 0.195

## RRIRTRPPRLPRPRPRPLCPPRP
  shrunken log2 fold change: -0.165

## RRIRTRPPRLPRPRPRPLDEPRP
  shrunken log2 fold change: 0.23

## RRIRTRPPRLPRPRPRPLDHPRP
  shrunken log2 fold change: -0.186

## RRIRTRPPRLPRPRPRPLFIPRP
  shrunken log2 fold change: -0.746

## RRIRTRPPRLPRPRPRPLFRPRP
  shrunken log2 fold change: -0.353

## RRIRTRPPRLPRPRPRPLGFPRP
  shrunken log2 fold change: 0.046

## RRIRTRPPRLPRPRPRPLGRPRP
  shrunken log2 fold change: 2.94

## RRIRTRPPRLPRPRPRPLIPPRP
  shrunken log2 fold change: -0.106

## RRIRTRPPRLPRPRPRPLKTPRP
  shrunken log2 fold change: -0.0866

## RRIRTRPPRLPRPRPRPLMKPRP
  shrunken log2 fold change: -0.26

## RRIRTRPPRLPRPRPRPLMRPRP
  shrunken log2 fold change: 0.216

## RRIRTRPPRLPRPRPRPLNEPRP
  shrunken log2 fold change: -0.0228

## RRIRTRPPRLPRPRPRPLPGPRP
  shrunken log2 fold change: 0.164

## RRIRTRPPRLPRPRPRPLPLPRP
  shrunken log2 fold change: -0.107

## RRIRTRPPRLPRPRPRPLPVPRP
  shrunken log2 fold change: -0.103

## RRIRTRPPRLPRPRPRPLSQPRP
  shrunken log2 fold change: -0.0906

## RRIRTRPPRLPRPRPRPLWVPRP
  shrunken log2 fold change: 0.0735

## RRIRTRPPRLPRPRPRPLYHPRP
  shrunken log2 fold change: -0.48

## RRIRTRPPRLPRPRPRPMARPRP
  shrunken log2 fold change: 0.193

## RRIRTRPPRLPRPRPRPMCAPRP
  shrunken log2 fold change: -0.0676

## RRIRTRPPRLPRPRPRPMCWPRP
  shrunken log2 fold change: -0.0846

## RRIRTRPPRLPRPRPRPMDFPRP
  shrunken log2 fold change: 0.0159

## RRIRTRPPRLPRPRPRPMEAPRP
  shrunken log2 fold change: -0.0389

## RRIRTRPPRLPRPRPRPMELPRP
  shrunken log2 fold change: -0.172

## RRIRTRPPRLPRPRPRPMFHPRP
  shrunken log2 fold change: -0.52

## RRIRTRPPRLPRPRPRPMGRPRP
  shrunken log2 fold change: 0.217

## RRIRTRPPRLPRPRPRPMGTPRP
  shrunken log2 fold change: -0.0546

## RRIRTRPPRLPRPRPRPMHHPRP
  shrunken log2 fold change: -0.00407

## RRIRTRPPRLPRPRPRPMINPRP
  shrunken log2 fold change: -0.239

## RRIRTRPPRLPRPRPRPMMMPRP
  shrunken log2 fold change: 2.94

## RRIRTRPPRLPRPRPRPMNRPRP
  shrunken log2 fold change: -0.0804

## RRIRTRPPRLPRPRPRPMNTPRP
  shrunken log2 fold change: -0.609

## RRIRTRPPRLPRPRPRPMREPRP
  shrunken log2 fold change: 0.864

## RRIRTRPPRLPRPRPRPMSPPRP
  shrunken log2 fold change: -0.152

## RRIRTRPPRLPRPRPRPMTLPRP
  shrunken log2 fold change: -0.028

## RRIRTRPPRLPRPRPRPMTPPRP
  shrunken log2 fold change: 0.126

## RRIRTRPPRLPRPRPRPMVTPRP
  shrunken log2 fold change: 0.06

## RRIRTRPPRLPRPRPRPNAHPRP
  shrunken log2 fold change: -0.102

## RRIRTRPPRLPRPRPRPNAIPRP
  shrunken log2 fold change: -0.797

## RRIRTRPPRLPRPRPRPNAQPRP
  shrunken log2 fold change: 0.5

## RRIRTRPPRLPRPRPRPNASPRP
  shrunken log2 fold change: -0.0378

## RRIRTRPPRLPRPRPRPNCDPRP
  shrunken log2 fold change: 1.31

## RRIRTRPPRLPRPRPRPNCEPRP
  shrunken log2 fold change: 0.111

## RRIRTRPPRLPRPRPRPNEIPRP
  shrunken log2 fold change: -0.128

## RRIRTRPPRLPRPRPRPNGNPRP
  shrunken log2 fold change: -0.302

## RRIRTRPPRLPRPRPRPNHIPRP
  shrunken log2 fold change: -0.825

## RRIRTRPPRLPRPRPRPNHRPRP
  shrunken log2 fold change: -0.209

## RRIRTRPPRLPRPRPRPNITPRP
  shrunken log2 fold change: -0.664

## RRIRTRPPRLPRPRPRPNKVPRP
  shrunken log2 fold change: -0.326

## RRIRTRPPRLPRPRPRPNLDPRP
  shrunken log2 fold change: 0.0338

## RRIRTRPPRLPRPRPRPNLKPRP
  shrunken log2 fold change: -0.374

## RRIRTRPPRLPRPRPRPNLRPRP
  shrunken log2 fold change: -0.184

## RRIRTRPPRLPRPRPRPNMNPRP
  shrunken log2 fold change: -0.864

## RRIRTRPPRLPRPRPRPNNCPRP
  shrunken log2 fold change: -0.0675

## RRIRTRPPRLPRPRPRPNNMPRP
  shrunken log2 fold change: -0.346

## RRIRTRPPRLPRPRPRPNNRPRP
  shrunken log2 fold change: -0.754

## RRIRTRPPRLPRPRPRPNPAPRP
  shrunken log2 fold change: 0.147

## RRIRTRPPRLPRPRPRPNPQPRP
  shrunken log2 fold change: 0.125

## RRIRTRPPRLPRPRPRPNPSPRP
  shrunken log2 fold change: -0.128

## RRIRTRPPRLPRPRPRPNWIPRP
  shrunken log2 fold change: -0.289

## RRIRTRPPRLPRPRPRPNWYPRP
  shrunken log2 fold change: -0.382

## RRIRTRPPRLPRPRPRPNYCPRP
  shrunken log2 fold change: -0.0491

## RRIRTRPPRLPRPRPRPNYQPRP
  shrunken log2 fold change: -0.362

## RRIRTRPPRLPRPRPRPNYTPRP
  shrunken log2 fold change: -0.753

## RRIRTRPPRLPRPRPRPNYVPRP
  shrunken log2 fold change: -0.35

## RRIRTRPPRLPRPRPRPPAHPRP
  shrunken log2 fold change: 0.252

## RRIRTRPPRLPRPRPRPPDNPRP
  shrunken log2 fold change: -0.0234

## RRIRTRPPRLPRPRPRPPGAPRP
  shrunken log2 fold change: 0.995

## RRIRTRPPRLPRPRPRPPGRPRP
  shrunken log2 fold change: 0.586

## RRIRTRPPRLPRPRPRPPHRPRP
  shrunken log2 fold change: -0.0645

## RRIRTRPPRLPRPRPRPPIPPRP
  shrunken log2 fold change: 0.128

## RRIRTRPPRLPRPRPRPPKHPRP
  shrunken log2 fold change: 0.157

## RRIRTRPPRLPRPRPRPPKMPRP
  shrunken log2 fold change: 0.18

## RRIRTRPPRLPRPRPRPPNEPRP
  shrunken log2 fold change: 0.207

## RRIRTRPPRLPRPRPRPPNTPRP
  shrunken log2 fold change: 0.443

## RRIRTRPPRLPRPRPRPPPGPRP
  shrunken log2 fold change: 0.668

## RRIRTRPPRLPRPRPRPPPLPRP
  shrunken log2 fold change: 0.352

## RRIRTRPPRLPRPRPRPPQDPRP
  shrunken log2 fold change: 0.608

## RRIRTRPPRLPRPRPRPPQIPRP
  shrunken log2 fold change: 0.16

## RRIRTRPPRLPRPRPRPPQKPRP
  shrunken log2 fold change: 0.0412

## RRIRTRPPRLPRPRPRPPQPPRP
  shrunken log2 fold change: 0.154

## RRIRTRPPRLPRPRPRPPRGPRP
  shrunken log2 fold change: 0.607

## RRIRTRPPRLPRPRPRPPRPPRP
  shrunken log2 fold change: 0.713

## RRIRTRPPRLPRPRPRPPTDPRP
  shrunken log2 fold change: 0.0638
